Data as given in US7105306 (University of Pennsylvania, dated 2006).

Target: prolactin (PRL), human, untagged (serum PRL; PRL used in cell cultures) (human, UniProt P01229)
Test: cell-based or functional assay

PRL-driven growth of Nb2 cells (3H-thymidine): ≤ 8 fold
B1: His-tagged cyclophilin B (CypB), recombinant, purified from Drosophila S2 cells (enzyme, not shown: small tags and cut ends)
chain: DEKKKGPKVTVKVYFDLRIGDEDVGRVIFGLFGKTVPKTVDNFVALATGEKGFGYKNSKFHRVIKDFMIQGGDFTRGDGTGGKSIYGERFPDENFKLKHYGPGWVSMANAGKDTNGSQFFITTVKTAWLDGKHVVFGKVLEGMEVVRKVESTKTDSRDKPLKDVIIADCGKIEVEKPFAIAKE
